According to US20250082573A1, “COMPOSITIONS AND METHODS FOR DELIVERY OF OCULAR THERAPEUTICS” (The Board of Trustees of the Leland Stanford Junior …, priority 2023, published 2025):

Tests used:
[1] = VH mimic depot formation and model cargo release assay; assay type: physicochemical; conditions: cargo in PNP hydrogel vs PBS bolus, 50 μL into VH mimic; fluorescein 0.25 mg mL^−1, albumin-FITC 10 mg mL^−1
Experimental: This example describes PNP-2-10 hydrogel depot formation and model cargo release in a VH mimic. The PNP-2-10 hydrogel was prepared as described in Example 1. The present technology is directed to ITV administration of PNP hydrogels in the sensitive environment of the eye. To better visualize and understand how the PNP hydrogels would behave in the VH, depot formation and model cargo release were analyzed in a VH mimic composed of agar and hyaluronic acid (HA). […]
To prepare the VH mimic release assay, 50 μL of PNP hydrogel or PBS loaded with either 0.25 mg mL^−1 fluorescein or 10 mg mL^−1 albumin-FITC (MW˜66 kDa, mol FITC:mol albumin=14) was injected through a 30-gauge needle into a cuvette containing a VH mimic. […] Dye release was quantified using ImageJ software. Images were separated into red, blue, and green channels and the intensity in the green channel within a region inside the hydrogel depot or initial PBS injection site was measured for each time point, denoted Itn. […] The fraction of dye remaining in the gel depot at the final time point was determined by comparing the change in background intensity from times t0 to tplateau for PBS and gel samples:
The percent of dye retained in the gel or PBS injection site at each time point tn was determined by normalizing the intensity as
where tf is the final time point measured and C is a constant defined by […]

[2] = following IV administration; cited from earlier work

Compound | increase of effective half-life of retention compared to the control PBS bolus [1] | elimination half-life [2] [min]
albumin-FITC: a model protein, MW˜66 kDa, mol FITC:mol albumin=14 | over 3.7 fold | 
CCNC(=O)CCC/C=C\C[C@@H]1[C@@H](/C=C/[C@@H](O)CCc2ccccc2)[C@H](O)C[C@@H]1O [bimatoprost] |  | 45
